{"source": "patent US8563503B2", "about": "“Antibiotic, its nucleotide sequence, methods of construction and uses thereof” (Protein Design Lab. Ltd., priority 2011, dated 2013)", "format_in_all_cases": "cell-based", "key": {"[1]": {"tested_on": "Staphylococcus epidermidis (MRSE)", "assay": "MIC by Agar Doubling Dilution Method, clinical isolates", "conditions": "MRSE clinical strains", "how_it_was_run": "(§1)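 For Enterococcus, medium was MH supplemented with 5-10% defibrinated rabbit blood and incubation used 5% CO2 at 37° C. All strains are spotted at 10^5 CFU/ml onto agar carrying twofold drug dilutions and read after 18-24 h for absence of growth.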"}, "[2]": {"tested_on": "Staphylococcus aureus (MRSA)", "assay": "MIC by Agar Doubling Dilution Method, clinical isolates", "how_it_was_run": "as §1"}, "E. coli": {"tested_on": "E. coli", "assay": "MIC by Agar Doubling Dilution Method, clinical isolates", "conditions": "E. coli clinical strains", "how_it_was_run": "as §1"}, "Baumanii": {"tested_on": "Baumanii", "assay": "MIC by Agar Doubling Dilution Method, clinical isolates", "conditions": "Baumanii clinical strains", "how_it_was_run": "as §1"}, "[3]": {"tested_on": "Staphylococcus aureus (MSSA)", "assay": "MIC by Agar Doubling Dilution Method, clinical isolates", "conditions": "MSSA clinical strains", "how_it_was_run": "as §1"}, "[4]": {"tested_on": "Staphylococcus epidermidis (MSSE strain)", "assay": "MIC by Agar Doubling Dilution Method, clinical isolates", "conditions": "MSSE clinical strains", "how_it_was_run": "as §1"}, "[5]": {"tested_on": "methicillin-resistant Staphylococcus aureus (ATCC BAA-42)", "assay": "Transmission electron microscope observation of bactericidal effect", "experimental": "Transmission Electron Microscope Observations of the Bactericidal Effect of the Novel Antibiotic PMC-SA1 on Methicillin-Resistant Staphylococcus aureus (ATCC BAA-42) (Dyed by 1% Phospho-Wolframic Acid, Magnified by 25,000 Fold)\nCulture solution: 1% tryptone, 1% NaCl, 0.5% yeast extract, 0.5% glucose, 0.1% K2HPO4.\nCon: control group, the bacterium was added to the above culture solution and proper amount of 0.3 M NaCl+50 mM boric acid buffer solution, 200 rpm, grew at 37° C. for 2 hours, and the bacterial appearance was still regular;\nPMC: the bacterium was added to the above culture solution with 10 μg/ml PMC-SA1 for 0.5 hours."}, "[6]": {"tested_on": "methicillin-resistant Staphylococcus aureus ATCC BAA-42", "assay": "Bacteria growth curve (A595 nm), comparison of the novel antibiotics", "conditions": "drug 5 μg/ml, 37° C., A595 nm per hour", "how_it_was_run": "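MRSA ATCC BAA-42 (10^6 CFU/ml inoculum level) grown in peptone/NaCl/yeast extract/glucose/K2HPO4 broth at 37 °C, 200 rpm, with each polypeptide at 5 μg/ml; buffer (0.3 M NaCl + 50 mM boric acid) and penicillin G 5 μg/ml as controls. Turbidity (A595 nm) sampled hourly for growth curves.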"}, "[7]": {"tested_on": "Pseudomonas aeruginosa Standard Strain (ATCC 27853)", "assay": "Bacteria growth curve (A595 nm cloudiness), Pseudomonas aeruginosa", "conditions": "drug 5 μg/ml, 37° C., A595 nm per hour", "experimental": "The experimental bacterium was Pseudomonas aeruginosa Standard Strain (ATCC 27853) purchased from the Center for General Microorganism of the Administration (CGMCC). 5 microliter bacteria solution (10^6 CFU/ml level bacterium amount) was added into 10 ml MH culture solution. Seven groups are prepared. 0.3 M NaCl+50 mM boric acid buffer fluid which amount was identical to amount of antibiosis polypeptide liquid in the experimental group was added as control in the first group, 5 μg/ml wild-type colicin Ia was added in the second group, 5 μg/ml PMC-SA1 was added in the third group, and 5 μg/ml PMC-PA was added in the fourth group.\nLiquid in the above groups was put into 100 ml conical flask, 200 rpm, grew at 37° C. 100 μl was sampled per hour, and added onto 96-hole Elisa Plate to measure bacteria grown cloudiness by spectrophotometer (A595 nm) color comparison. The bacteria growth curve was drawn up to compare the bacteriostasis efficacy of antibiosis polypeptide."}}, "note": "Entries after “also recorded” stand apart in the source; their conditions may differ."}
{"molecule": "PMC-SA1: Staphylococcus aureus pheromone AgrD I linked to C-terminus of allosteric colicin Ia′; SEQ ID NO. 13; plasmid pBHC-SA1 (protein, The peptide of PMC-SA1, Staphylococcus aureus pheromone AgrD I linked to C-terminus of allosteric colicin Ia′; 13; plasmid pBHC-SA1) SDPVRITNPAAESLGYDSDGREIMGVDIYLNPPRVDVFKGTPPAWSSFGNKTIWGGNEWVDDSPTRSDIEKRDKEITAYKNTLSAQQKENENKRTEAGKRLSAAIAAREKDENTLKTLRAGNADAADITRQEFRLLQAELREYGFRTEIAGYDALRLHTESRMLFADADSLRISPREARSLIEQAEKRQKDAQNADKKAADMLAEYERRKGILDTRLSELEKNGGAALAVLDAQQARLLGQQTRNDRAISEARNKLSSVTESLNTARNALTRAEQQLTQQKNTPDGKTIVSPEKFPGRSSTNHSIVVSGDPRFAGTIKITTSAVIDNRANLNYLLSHSGLDYKRNILNDRNPVVTEDVEGDKKIYNAEVAEWDKLRQRLLDARNKITSAESAVNSARNNLSARTNEQKHANDALNALLKEKENIRNQLSGINQKIAEEKRKQDELKATKDAINFTTEFLKSVSEKYGAKAEQLAREMAGQAKGKKIRNVEEALKTYEKYRADINKKINAKDRAAIAAALESVKLSDISSNLNRFSRGLGYAGKFTSLADWITEFGKAVRTENWRPLFVKTETIIAGNAATALVALVFSILTGSALGIIGYGLLMAVTGALIDESLVEKANKFWGIYSTCDFIM", "values": [{"measurement": "MIC50", "setting": "[1]", "result": ">64", "unit": "µg/mL"}, {"measurement": "MIC90", "setting": "[1]", "result": ">64", "unit": "µg/mL"}, {"measurement": "MIC50", "setting": "[2]; MRSA clinical strains", "result": "8 to 16", "unit": "µg/mL"}, {"measurement": "MIC90", "setting": "[2]; MRSA clinical strains", "result": ">16", "unit": "µg/mL"}, {"measurement": "Scope of MIC", "setting": "[2]; MRSA clinical strains", "result": "<0.25 to 64", "unit": "µg/mL"}, {"measurement": "in vitro antibacterial activity relative to oxacillin, standardized by same drug molecular number in unit volume", "setting": "[2]; Staphylococcus aureus, MRSA", "result": "1,240 times"}, {"measurement": "in vitro antibacterial activity relative to vancomycin, standardized by same drug molecular number in unit volume", "setting": "[2]; Staphylococcus aureus, MRSA", "result": "three"}, {"measurement": "MIC50", "setting": "E. coli", "result": 16, "unit": "µg/mL"}, {"measurement": "MIC90", "setting": "E. coli", "result": ">32", "unit": "µg/mL"}, {"measurement": "MIC50", "setting": "Baumanii", "result": 32, "unit": "µg/mL"}, {"measurement": "MIC90", "setting": "Baumanii", "result": ">64", "unit": "µg/mL"}, {"measurement": "MIC50", "setting": "[3]", "result": 0.5, "unit": "µg/mL"}, {"measurement": "MIC90", "setting": "[3]", "result": 16, "unit": "µg/mL"}, {"measurement": "MIC50", "setting": "[4]", "result": 1, "unit": "µg/mL"}, {"measurement": "MIC90", "setting": "[4]", "result": 32, "unit": "µg/mL"}, {"measurement": "Scope of MIC", "setting": "[4]", "result": "0.25 to 64", "unit": "µg/mL"}, {"measurement": "antibiosis effect relative to oxacillin (by molecular weight and concentration)", "setting": "[5]; 10 μg/ml PMC-SA1 vs 500 μg/ml oxacillin", "result": "about eight thousand"}, {"measurement": "bactericidal effect, bacterial appearance under transmission electron microscope", "setting": "[5]; PMC-SA1 10 μg/ml, 0.5 hours", "result": "bacterium were ruptured, the contents were leaked out; also recorded: the bacterium ruptured and leaked out its contents; also recorded: could kill methicillin-resistant Staphylococcus aureus effectively"}, {"measurement": "bacteriostasis effect on growth of methicillin-resistant Staphylococcus aureus (bacteria growth curve)", "setting": "[6]", "result": "the best"}, {"measurement": "growth of Pseudomonas aeruginosa (bacteria growth curve)", "setting": "[7]", "result": "can not be effectively restrained"}]}
